Results taken from publication PMC2527209.

Target: non-translating mammalian (canine) ribosome (canine)
Assay: co-sedimentation

In the case of “Sec61 complex (from UniProt P38377 1-476; P60467 1-96; P60058 1-68)”, the stoichiometry N is reported as 0.8.
